Data on 18 variants can be found in the RNAGym collection of RNA variant scans (doi:10.1021/acssynbio.7b00057).

The labels stand for the following.
B1: Pistol ribozyme (parent)
chain: GGGUCGUUGUUCCAUAAUCGCGUGGAUAUGGCACGCAAGUUUCUACCGGGCACCGUAAAUGUCCGACUGGAGCCGUUCGGGCGGCUAUAAACAGACCUCAGGCCCGAAGCGUGGCGGCACCUGCCGCCGGUGGUAAAAAAGAUCGGAAGAGCACACGUCU

The variants in the data set derive from B1. Description: aptazyme ON/OFF ratio, guanine; higher = stronger switching; co-transcriptional cleavage with and without guanine.
For GGGUCGCUACUCCAUAAUCGCGUGGAUAUGGCACGCAAGUUUCUACCGGGCACCGUAAAUGUCCGACUGGAGCCGUUCGGGCGGCUAUAAACAGACCUCAGGCCCGAAGCGUGGCGGCACCUGCCGCCGGUGGUAAAAAAGAUCGGAAGAGCACACGUCU [U7C G9A U10C], the “aptazyme ON/OFF ratio” value amounted to 4.55.

Consider GGGUCGCUAACCCAUAAUCGCGUGGAUAUGGCACGCAAGUUUCUACCGGGCACCGUAAAUGUCCGACUGGAGCCGUUCGGGCGGCUAUAAACAGACCUCAGGCCCGAAGCGUGGCGGCACCUGCCGCCGGUGGUAAAAAAGAUCGGAAGAGCACACGUCU [U7C G9A U10A U11C], for which the “aptazyme ON/OFF ratio” value was determined as 1.09.

On to GGGUCGCUAAGCCAUAAUCGCGUGGAUAUGGCACGCAAGUUUCUACCGGGCACCGUAAAUGUCCGACUGGAGCCGUUCGGGCGGCUAUAAACAGACCUCAGGCCCGAAGCGUGGCGGCACCUGCCGCCGGUGGUAAAAAAGAUCGGAAGAGCACACGUCU [U7C G9A U10A U11G], for which the “aptazyme ON/OFF ratio” value is 1.27.

Regarding GGGUCGCUACUACAUAAUCGCGUGGAUAUGGCACGCAAGUUUCUACCGGGCACCGUAAAUGUCCGACUGGAGCCGUUCGGGCGGCUAUAAACAGACCUCAGGCCCGAAGCGUGGCGGCACCUGCCGCCGGUGGUAAAAAAGAUCGGAAGAGCACACGUCU [U7C G9A U10C C12A], the “aptazyme ON/OFF ratio” value was 1.27.

For the variant GGGUCGCUAACGUAUAAUCGCGUGGAUAUGGCACGCAAGUUUCUACCGGGCACCGUAAAUGUCCGACUGGAGCCGUUCGGGCGGCUAUAAACAGACCUCAGGCCCGAAGCGUGGCGGCACCUGCCGCCGGUGGUAAAAAAGAUCGGAAGAGCACACGUCU [U7C G9A U10A U11C C12G C13U], the “aptazyme ON/OFF ratio” value turned out to be 1.12.

With GGGUCGCUAACGGAUAAUCGCGUGGAUAUGGCACGCAAGUUUCUACCGGGCACCGUAAAUGUCCGACUGGAGCCGUUCGGGCGGCUAUAAACAGACCUCAGGCCCGAAGCGUGGCGGCACCUGCCGCCGGUGGUAAAAAAGAUCGGAAGAGCACACGUCU [U7C G9A U10A U11C C12G C13G], the “aptazyme ON/OFF ratio” value turned out to be 1.46.

For GGGUCGCUAACGAAUAAUCGCGUGGAUAUGGCACGCAAGUUUCUACCGGGCACCGUAAAUGUCCGACUGGAGCCGUUCGGGCGGCUAUAAACAGACCUCAGGCCCGAAGCGUGGCGGCACCUGCCGCCGGUGGUAAAAAAGAUCGGAAGAGCACACGUCU [U7C G9A U10A U11C C12G C13A], the “aptazyme ON/OFF ratio” value amounted to 1.27.

Regarding GGGUCGCUAACUGAUAAUCGCGUGGAUAUGGCACGCAAGUUUCUACCGGGCACCGUAAAUGUCCGACUGGAGCCGUUCGGGCGGCUAUAAACAGACCUCAGGCCCGAAGCGUGGCGGCACCUGCCGCCGGUGGUAAAAAAGAUCGGAAGAGCACACGUCU [U7C G9A U10A U11C C12U C13G], the “aptazyme ON/OFF ratio” value came out at 1.05.

For GGGUCGCUAACUAAUAAUCGCGUGGAUAUGGCACGCAAGUUUCUACCGGGCACCGUAAAUGUCCGACUGGAGCCGUUCGGGCGGCUAUAAACAGACCUCAGGCCCGAAGCGUGGCGGCACCUGCCGCCGGUGGUAAAAAAGAUCGGAAGAGCACACGUCU [U7C G9A U10A U11C C12U C13A], the “aptazyme ON/OFF ratio” value is 1.24.

With GGGUCGCUAACUUAUAAUCGCGUGGAUAUGGCACGCAAGUUUCUACCGGGCACCGUAAAUGUCCGACUGGAGCCGUUCGGGCGGCUAUAAACAGACCUCAGGCCCGAAGCGUGGCGGCACCUGCCGCCGGUGGUAAAAAAGAUCGGAAGAGCACACGUCU [U7C G9A U10A U11C C12U C13U], the “aptazyme ON/OFF ratio” value amounted to 1.23.

For GGGUCGCUACUAGAUAAUCGCGUGGAUAUGGCACGCAAGUUUCUACCGGGCACCGUAAAUGUCCGACUGGAGCCGUUCGGGCGGCUAUAAACAGACCUCAGGCCCGAAGCGUGGCGGCACCUGCCGCCGGUGGUAAAAAAGAUCGGAAGAGCACACGUCU [U7C G9A U10C C12A C13G], the “aptazyme ON/OFF ratio” value was 1.17.

Consider GGGUCGCUACUAAAUAAUCGCGUGGAUAUGGCACGCAAGUUUCUACCGGGCACCGUAAAUGUCCGACUGGAGCCGUUCGGGCGGCUAUAAACAGACCUCAGGCCCGAAGCGUGGCGGCACCUGCCGCCGGUGGUAAAAAAGAUCGGAAGAGCACACGUCU [U7C G9A U10C C12A C13A], for which the “aptazyme ON/OFF ratio” value came out at 1.38.

With GGGUCGCUAAGAGAUAAUCGCGUGGAUAUGGCACGCAAGUUUCUACCGGGCACCGUAAAUGUCCGACUGGAGCCGUUCGGGCGGCUAUAAACAGACCUCAGGCCCGAAGCGUGGCGGCACCUGCCGCCGGUGGUAAAAAAGAUCGGAAGAGCACACGUCU [U7C G9A U10A U11G C12A C13G], the “aptazyme ON/OFF ratio” value was determined as 1.11.

On to GGGUCGCUAAGAAAUAAUCGCGUGGAUAUGGCACGCAAGUUUCUACCGGGCACCGUAAAUGUCCGACUGGAGCCGUUCGGGCGGCUAUAAACAGACCUCAGGCCCGAAGCGUGGCGGCACCUGCCGCCGGUGGUAAAAAAGAUCGGAAGAGCACACGUCU [U7C G9A U10A U11G C12A C13A], for which the “aptazyme ON/OFF ratio” value was 1.08.

Regarding GGGUCGCUAAGAUAUAAUCGCGUGGAUAUGGCACGCAAGUUUCUACCGGGCACCGUAAAUGUCCGACUGGAGCCGUUCGGGCGGCUAUAAACAGACCUCAGGCCCGAAGCGUGGCGGCACCUGCCGCCGGUGGUAAAAAAGAUCGGAAGAGCACACGUCU [U7C G9A U10A U11G C12A C13U], the “aptazyme ON/OFF ratio” value amounted to 1.15.

With GGGUCGCUAACAUAUAAUCGCGUGGAUAUGGCACGCAAGUUUCUACCGGGCACCGUAAAUGUCCGACUGGAGCCGUUCGGGCGGCUAUAAACAGACCUCAGGCCCGAAGCGUGGCGGCACCUGCCGCCGGUGGUAAAAAAGAUCGGAAGAGCACACGUCU [U7C G9A U10A U11C C12A C13U], the “aptazyme ON/OFF ratio” value stood at 1.24.

With GGGUCGCUAACAAAUAAUCGCGUGGAUAUGGCACGCAAGUUUCUACCGGGCACCGUAAAUGUCCGACUGGAGCCGUUCGGGCGGCUAUAAACAGACCUCAGGCCCGAAGCGUGGCGGCACCUGCCGCCGGUGGUAAAAAAGAUCGGAAGAGCACACGUCU [U7C G9A U10A U11C C12A C13A], the “aptazyme ON/OFF ratio” value is 1.1.

Take GGGUCGCUAACAGAUAAUCGCGUGGAUAUGGCACGCAAGUUUCUACCGGGCACCGUAAAUGUCCGACUGGAGCCGUUCGGGCGGCUAUAAACAGACCUCAGGCCCGAAGCGUGGCGGCACCUGCCGCCGGUGGUAAAAAAGAUCGGAAGAGCACACGUCU [U7C G9A U10A U11C C12A C13G]: the “aptazyme ON/OFF ratio” value was found to be 1.1.
